Test results published in PMC9367177.

Biological target: SARS-CoV-2 RBD (Wuhan-1), monomeric, His-Avitag (SARS-CoV-2, Wuhan-1) (UniProt P0DTC2)
Assay: SPR

Which Kd does the source give for CC12.1 IgG (antibody) here?
Its Kd is 6 nM.
